{
  "source": "the RNAGym collection of RNA variant scans (doi:10.7554/elife.80360)",
  "parents": {"B1": {"name": "CPEB3 Ribozyme (parent)", "chain": "GGGGGCCACAGCAGAAGCGUUCACGUCGCGGCCCCUGUCAGAUUCUGGUGAAUCUGCGAAUUCUGCUGU"}},
  "data": [
    {"variants_of": "B1", "assay": "self-cleavage, relative activity (ratio to wild type); higher = more cleavage; co-transcriptional", "values": [
      {"variant": "GGGGGCCACAGCAGAAGCGUUGACGUCGCGGCCCCUGUCAGAUUCUGGGGAAUCUGCGAAUUCUGCUGU", "note": "[C22G U49G]", "self-cleavage": 0.153},
      {"variant": "GGGGGCCACAGCAGAAGCGUUUACGUCGCGGCCCCUCUCAGAUUCUGGUGAAUCUGCGAAUUCUGCUGU", "note": "[C22U G37C]", "self-cleavage": 0.216},
      {"variant": "GGGGGCCACAGCAGAAGCGUUUACGUCGCGGCCCCUAUCAGAUUCUGGUGAAUCUGCGAAUUCUGCUGU", "note": "[C22U G37A]", "self-cleavage": 0.957},
      {"variant": "GGGGGCCACAGCAGAAGCGUUGACGUCGCGGCCCCUGUCAGAUUCUGGUGAAUCUGCGAAUUCUGCUGC", "note": "[C22G U69C]", "self-cleavage": 0.374},
      {"variant": "GGGGGCCACAGCAGAAGCGUUUACGUCGCCGCCCCUGUCAGAUUCUGGUGAAUCUGCGAAUUCUGCUGU", "note": "[C22U G30C]", "self-cleavage": 0.181},
      {"variant": "GGGGGCCACAGCAGAAGCGUUGACGUCGCGGCCCCUGUCAGAUUCUGGUGAAUCUGCGAAUUCUGCGGU", "note": "[C22G U67G]", "self-cleavage": 0.121},
      {"variant": "GGGGGCCACAGCAGAAGCGUUGACGUCGCGGCCCCUGUCAGAUUCUGGUGAAUCUGCGAAUUCUGCAGU", "note": "[C22G U67A]", "self-cleavage": 0.242},
      {"variant": "GGGGGCCACAGCAGAAGCGUUGACGUCGCGGCCCCUGUCAGAUUCUGGUGAAUCUGCGAAUUCUGCCGU", "note": "[C22G U67C]", "self-cleavage": 0.175},
      {"variant": "GGGGGCCACAGCAGAAGCGUUUACGUCGCGGCCCCUGUCAGAUUCUGGUGAAUCUGCGAAUUCUGCUGU", "note": "[C22U]", "self-cleavage": 0.337},
      {"variant": "GGGGGCCACAGCAGAAGCGUUUACGUCGCGGCUCCUGUCAGAUUCUGGUGAAUCUGCGAAUUCUGCUGU", "note": "[C22U C33U]", "self-cleavage": 0.315},
      {"variant": "GGGGGCCACAGCAGAAGCGUUUACGUCGCGGCGCCUGUCAGAUUCUGGUGAAUCUGCGAAUUCUGCUGU", "note": "[C22U C33G]", "self-cleavage": 0.18},
      {"variant": "GGGGGCCACAGCAGAAGCGUUUACGUCGCGGCACCUGUCAGAUUCUGGUGAAUCUGCGAAUUCUGCUGU", "note": "[C22U C33A]", "self-cleavage": 0.176},
      {"variant": "GGGGGCCACAGCAGAAGCGUUUACGUCGGGGCCCCUGUCAGAUUCUGGUGAAUCUGCGAAUUCUGCUGU", "note": "[C22U C29G]", "self-cleavage": 0.152},
      {"variant": "GGGGGCCACAGCAGAAGCGUUUACGUCGUGGCCCCUGUCAGAUUCUGGUGAAUCUGCGAAUUCUGCUGU", "note": "[C22U C29U]", "self-cleavage": 0.14},
      {"variant": "GGGGGCCACAGCAGAAGCGUUUACGUCGCGGCCCCUGUCAGAUUCUGGUGAAUCUGCGAAUUAUGCUGU", "note": "[C22U C63A]", "self-cleavage": 0.178},
      {"variant": "GGGGGCCACAGCAGAAGCGUUUACGUCGCGGCCCCUGUCAGAUUCUGGUGAAUCUGCGAAUUUUGCUGU", "note": "[C22U C63U]", "self-cleavage": 0.265},
      {"variant": "GGGGGCCACAGCAGAAGCGUUUACGUCGCGGCCCCUGUCAGAUUCUGGUGAAUCUGCGAAUUGUGCUGU", "note": "[C22U C63G]", "self-cleavage": 0.156},
      {"variant": "GGGGGCCACAGCAGAAGCGUUUACGUCGCGGCCCCUGUCAGAUUCUGGUGAAUCUGCGAGUUCUGCUGU", "note": "[C22U A60G]", "self-cleavage": 0.223},
      {"variant": "GGGGGCCACAGCAGAAGCGUUUACGUCGCGGCCCCUGUCAGAUUCUGGUGAAUCUGCGACUUCUGCUGU", "note": "[C22U A60C]", "self-cleavage": 0.158},
      {"variant": "GGGGGCCACAGCAGAAGCGUUUACGUCGCGGCCCCUGUCAGAUUCUGGUGAAUCUGCGAUUUCUGCUGU", "note": "[C22U A60U]", "self-cleavage": 0.137},
      {"variant": "GGGGGCCACAGCAGAAGCGUUGACGUCGCGGCCCCUGUCAGACUCUGGUGAAUCUGCGAAUUCUGCUGU", "note": "[C22G U43C]", "self-cleavage": 0.174},
      {"variant": "GGGGGCCACAGCAGAAGCGUUGACGUCGCGGCCCCUGUCAGAGUCUGGUGAAUCUGCGAAUUCUGCUGU", "note": "[C22G U43G]", "self-cleavage": 0.133},
      {"variant": "GGGGGCCACAGCAGAAGCGUUGACGUCGCGGCCCCUGUCAGAUUCUGGUGAACCUGCGAAUUCUGCUGU", "note": "[C22G U53C]", "self-cleavage": 0.184},
      {"variant": "GGGGGCCACAGCAGAAGCGUUGACGUCGCGGCCCCUGUCAGAUUCUGGUGAAGCUGCGAAUUCUGCUGU", "note": "[C22G U53G]", "self-cleavage": 0.129},
      {"variant": "GGGGGCCACAGCAGAAGCGUUUACGUCGCGGCCCCUGUCAGAUUCUGGUGACUCUGCGAAUUCUGCUGU", "note": "[C22U A52C]", "self-cleavage": 0.233},
      {"variant": "GGGGGCCACAGCAGAAGCGUUUACGUCGCGGCCCCUGUCAGAUUCUGGUGAGUCUGCGAAUUCUGCUGU", "note": "[C22U A52G]", "self-cleavage": 0.379},
      {"variant": "GGGGGCCACAGCAGAAGCGUUUACGUAGCGGCCCCUGUCAGAUUCUGGUGAAUCUGCGAAUUCUGCUGU", "note": "[C22U C27A]", "self-cleavage": 0.2},
      {"variant": "GGGGGCCACAGCAGAAGCGUUUACGUUGCGGCCCCUGUCAGAUUCUGGUGAAUCUGCGAAUUCUGCUGU", "note": "[C22U C27U]", "self-cleavage": 0.164},
      {"variant": "GGGGGCCACAGCAGAAGCGUUUACGUGGCGGCCCCUGUCAGAUUCUGGUGAAUCUGCGAAUUCUGCUGU", "note": "[C22U C27G]", "self-cleavage": 0.215},
      {"variant": "GGGGGCCACAGCAGAAGCGUUGACGUCGCGGCCCCUGUCAGAUUCUGGUGAAUCUGCGAAUUCAGCUGU", "note": "[C22G U64A]", "self-cleavage": 0.202},
      {"variant": "GGGGGCCACAGCAGAAGCGUUGACGUCGCGGCCCCUGUCAGAUUCUGGUGAAUCUGCGAAUUCCGCUGU", "note": "[C22G U64C]", "self-cleavage": 0.205},
      {"variant": "GGGGGCCACAGCAGAAGCGUUUACGUCGCGGCCCUUGUCAGAUUCUGGUGAAUCUGCGAAUUCUGCUGU", "note": "[C22U C35U]", "self-cleavage": 0.183},
      {"variant": "GGGGGCCACAGCAGAAGCGUUUACGUCGCGGCCCAUGUCAGAUUCUGGUGAAUCUGCGAAUUCUGCUGU", "note": "[C22U C35A]", "self-cleavage": 0.178},
      {"variant": "GGGGGCCACAGCAGAAGCGUUUACGUCACGGCCCCUGUCAGAUUCUGGUGAAUCUGCGAAUUCUGCUGU", "note": "[C22U G28A]", "self-cleavage": 0.117},
      {"variant": "GGGGGCCACAGCAGAAGCGUUUACGUCUCGGCCCCUGUCAGAUUCUGGUGAAUCUGCGAAUUCUGCUGU", "note": "[C22U G28U]", "self-cleavage": 0.148},
      {"variant": "GGGGGCCACAGCAGAAGCGUUUGCGUCGCGGCCCCUGUCAGAUUCUGGUGAAUCUGCGAAUUCUGCUGU", "note": "[C22U A23G]", "self-cleavage": 0.307},
      {"variant": "GGGGGCCACAGCAGAAGCGUUUUCGUCGCGGCCCCUGUCAGAUUCUGGUGAAUCUGCGAAUUCUGCUGU", "note": "[C22U A23U]", "self-cleavage": 0.384},
      {"variant": "GGGGGCCACAGCAGAAGCGUUUACGUCGCGGCCCCUGUCAGAUUCUGGUGAAUCUGCGAAUUCUGGUGU", "note": "[C22U C66G]", "self-cleavage": 0.132},
      {"variant": "GGGGGCCACAGCAGAAGCGUUUACGUCGCGGCCCCUGUCAGAUUCUGGUGAAUCUGCGAAUUCUGAUGU", "note": "[C22U C66A]", "self-cleavage": 0.19}
    ]}
  ]
}
